Experiment [1] concerns the target T1, HAUSP (Herpes virus-associated ubiquitin-specific protease), full length (human, UniProt Q93009 1-1102).
T1 construct: also called USP7; Flag-HAUSP
Briefly: co-transfection in 293T cells (Flag-HAUSP with V5-vIRF4 constructs).

For experiment [2], the target named is T2, HAUSP TRAF domain (HAUSP^62-205) (human, UniProt Q93009 62-205).
T2 construct: also called TRAF-like domain of HAUSP
In words: ITC.

The target in experiment [3] is T2, HAUSP TRAF domain (HAUSP^62-205). Briefly: ITC, titration against the HAUSP TRAF domain, 20 C. In general terms: Isothermal titration calorimetry measures the heat released or taken up as one component is titrated into another.
Experiment [4] deals with T3, vIRF4 (Kaposi's-sarcoma-associated-herpesvirus vIRF4), full length wild type (Kaposi's-sarcoma-associated-herpesvirus …, UniProt Q2HR73 1-911).
T3 sequence: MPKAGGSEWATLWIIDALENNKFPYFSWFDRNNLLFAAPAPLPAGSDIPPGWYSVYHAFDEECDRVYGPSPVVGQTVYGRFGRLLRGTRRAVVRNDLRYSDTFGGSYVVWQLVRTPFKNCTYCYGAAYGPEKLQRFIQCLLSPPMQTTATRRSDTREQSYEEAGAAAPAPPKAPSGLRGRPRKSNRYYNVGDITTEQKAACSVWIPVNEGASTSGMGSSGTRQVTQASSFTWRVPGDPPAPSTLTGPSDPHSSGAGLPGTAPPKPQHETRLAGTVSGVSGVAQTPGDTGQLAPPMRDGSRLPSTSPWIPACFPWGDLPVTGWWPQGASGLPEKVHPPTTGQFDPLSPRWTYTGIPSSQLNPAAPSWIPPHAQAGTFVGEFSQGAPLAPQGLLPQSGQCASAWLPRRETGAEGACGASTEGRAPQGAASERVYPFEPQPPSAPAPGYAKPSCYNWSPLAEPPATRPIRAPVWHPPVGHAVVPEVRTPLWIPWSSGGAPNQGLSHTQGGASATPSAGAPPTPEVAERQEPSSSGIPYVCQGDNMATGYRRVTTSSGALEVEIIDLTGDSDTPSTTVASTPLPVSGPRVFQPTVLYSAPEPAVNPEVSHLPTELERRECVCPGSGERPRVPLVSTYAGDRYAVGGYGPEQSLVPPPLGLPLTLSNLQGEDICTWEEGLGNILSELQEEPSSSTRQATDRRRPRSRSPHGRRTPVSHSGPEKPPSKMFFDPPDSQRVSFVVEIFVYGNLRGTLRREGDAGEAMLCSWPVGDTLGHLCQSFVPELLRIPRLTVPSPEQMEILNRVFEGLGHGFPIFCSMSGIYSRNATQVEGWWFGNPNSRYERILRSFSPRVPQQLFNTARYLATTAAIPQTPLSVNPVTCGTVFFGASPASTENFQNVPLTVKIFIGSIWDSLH
Briefly: co-immunoprecipitation from transfected 293T cells, IP: V5, IB: Flag.

T2 sequence (Q93009 62-205): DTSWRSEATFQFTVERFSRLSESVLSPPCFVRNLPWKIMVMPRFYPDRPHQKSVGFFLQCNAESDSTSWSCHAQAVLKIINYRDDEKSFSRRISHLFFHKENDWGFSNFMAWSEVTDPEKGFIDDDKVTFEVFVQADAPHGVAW

B1: vIRF4Δ^202-256 mutant (other)
chain: MPKAGGSEWATLWIIDALENNKFPYFSWFDRNNLLFAAPAPLPAGSDIPPGWYSVYHAFDEECDRVYGPSPVVGQTVYGRFGRLLRGTRRAVVRNDLRYSDTFGGSYVVWQLVRTPFKNCTYCYGAAYGPEKLQRFIQCLLSPPMQTTATRRSDTREQSYEEAGAAAPAPPKAPSGLRGRPRKSNRYYNVGDITTEQKAACLPGTAPPKPQHETRLAGTVSGVSGVAQTPGDTGQLAPPMRDGSRLPSTSPWIPACFPWGDLPVTGWWPQGASGLPEKVHPPTTGQFDPLSPRWTYTGIPSSQLNPAAPSWIPPHAQAGTFVGEFSQGAPLAPQGLLPQSGQCASAWLPRRETGAEGACGASTEGRAPQGAASERVYPFEPQPPSAPAPGYAKPSCYNWSPLAEPPATRPIRAPVWHPPVGHAVVPEVRTPLWIPWSSGGAPNQGLSHTQGGASATPSAGAPPTPEVAERQEPSSSGIPYVCQGDNMATGYRRVTTSSGALEVEIIDLTGDSDTPSTTVASTPLPVSGPRVFQPTVLYSAPEPAVNPEVSHLPTELERRECVCPGSGERPRVPLVSTYAGDRYAVGGYGPEQSLVPPPLGLPLTLSNLQGEDICTWEEGLGNILSELQEEPSSSTRQATDRRRPRSRSPHGRRTPVSHSGPEKPPSKMFFDPPDSQRVSFVVEIFVYGNLRGTLRREGDAGEAMLCSWPVGDTLGHLCQSFVPELLRIPRLTVPSPEQMEILNRVFEGLGHGFPIFCSMSGIYSRNATQVEGWWFGNPNSRYERILRSFSPRVPQQLFNTARYLATTAAIPQTPLSVNPVTCGTVFFGASPASTENFQNVPLTVKIFIGSIWDSLH
Regarding B1, in experiment [1], the binding result is given as “no binding”.

B2: vIRF4^153-256 (other)
chain: SDTREQSYEEAGAAAPAPPKAPSGLRGRPRKSNRYYNVGDITTEQKAACSVWIPVNEGASTSGMGSSGTRQVTQASSFTWRVPGDPPAPSTLTGPSDPHSSGAG
As to B2, the “fold higher affinity (against vIRF4^153-216 and vIRF4^202-216)” value in experiment [2] stood at 7 fold. Besides, in experiment [3], the Ka was found to be 1.32e+07 M⁻¹; the affinity, expressed as Kd, was 76 nM; the TΔS is -10.1 kcal/mol; the n was 1.13. In experiment [3], the ΔG was -7.64 kcal/mol and the ΔH is -17.7 kcal/mol.

B3: Flag/HAUSP 205-1108 (enzyme)
single chain: WDSKKHTGYVGLKNQGATCYMNSLLQTLFFTNQLRKAVYMMPTEGDDSSKSVPLALQRVFYELQHSDKPVGTKKLTKSFGWETLDSFMQHDVQELCRVLLDNVENKMKGTCVEGTIPKLFRGKMVSYIQCKEVDYRSDRREDYYDIQLSIKGKKNIFESFVDYVAVEQLDGDNKYDAGEHGLQEAEKGVKFLTLPPVLHLQLMRFMYDPQTDQNIKINDRFEFPEQLPLDEFLQKTDPKDPANYILHAVLVHSGDNHGGHYVVYLNPKGDGKWCKFDDDVVSRCTKEEAIEHNYGGHDDDLSVRHCTNAYMLVYIRESKLSEVLQAVTDHDIPQQLVERLQEEKRIEAQKRKERQEAHLYMQVQIVAEDQFCGHQGNDMYDEEKVKYTVFKVLKNSSLAEFVQSLSQTMGFPQDQIRLWPMQARSNGTKRPAMLDNEADGNKTMIELSDNENPWTIFLETVDPELAASGATLPKFDKDHDVMLFLKMYDPKTRSLNYCGHIYTPISCKIRDLLPVMCDRAGFIQDTSLILYEEVKPNLTERIQDYDVSLDKALDELMDGDIIVFQKDDPENDNSELPTAKEYFRDLYHRVDVIFCDKTIPNDPGFVVTLSNRMNYFQVAKTVAQRLNTDPMLLQFFKSQGYRDGPGNPLRHNYEGTLRDLLQFFKPRQPKKLYYQQLKMKITDFENRRSFKCIWLNSQFREEEITLYPDKHGCVRDLLEECKKAVELGEKASGKLRLLEIVSYKIIGVHQEDELLECLSPATSRTFRIEEIPLDQVDIDKENEMLVTVAHFHKEVFGTFGIPFLLRIHQGEHFREVMKRIQSLLDIQEKEFEKFKFAIVMMGRHQYINEDEYEVNLKDFEPQPGNMSHPRPWLGLDHFNKAPKRSRYTYLEKAIKIHN
notes: N-terminal deletion fragment without the TRAF domain
Regarding B3, the binding result in experiment [4] is recorded as “no binding”.

The values above are taken from patent US20180201654A1 (UNIVERSITY OF SOUTHERN CALIFORNIA, published 2018).
